Paper PMC7815789, “Degradation of complex arabinoxylans by human colonic Bacteroidetes” (Nature Communications, 2021)

Molecular target: the molecule itself
Test: crystal structure; seleno-methionine-labeled BACINT_01033-CE1, 20 mg/ml in 50 mM Tris pH 7.5, 150 mM NaCl; sitting drop, room temperature; P3_(1)21 form from 0.1 M BIS-Tris pH 6.5, 20% PEG 1,500; dimer in the asymmetric unit

B1: BACINT_01033-CE1 (carbohydrate esterase family 1, ferulic acid esterase) (enzyme, Bacteroides intestinalis DSM 17393)
chain: QQQDFPAGTTPNEHNINGADYPRIGEDRRVHFRIHAPNAQKVEISFRGEMTKEADGYWSLVSKEPEVIGFHYYQVIIDGVSAADPNGKPFFGMGKWVSGIEIPEKGVDYYSIKNVPHGLISQSWYYSDIRKEWRRCIVYTPAEYDKNPTKKYPVLYLQHGMGENETSWANQGKMNFIMDNLIAEGKAKPMIVVMDNGNIEVFKTNSGETPEDARKRFGAEFPAILVNEIIPHIESNFRTLTDRDNRAMAGLSWGGLLTFNTTLNNLDKFAYIGGFSGAGSIDLKQLDTVYGGVFKNRKAFNDKVHVFFLGIGSEEHPERTKNLSDGLQAAGINTIYYESPGTAHEFLTWRRCLKEFAPLLFKTK
modifications: seleno-methionine-labeled
notes: BACINT_01033-CE1 of Bacteroides intestinalis DSM 17393; N-terminal Ig-like fold of ~100 residues followed by the esterase domain (residues 126-383); predicted signal peptide; Cloned NdeI/XhoI into pET-28a; also called Bi1033-CE1; Bi1033; source: E. coli BL21 (DE3), seleno-methionine-labeled, purified (HisTrap, Superdex 200)
stoichiometry N: 2
